# Assay results as given in patent US20200024330A1.
# Tests used:
# Experiment in all cases: cell-based or functional assay
# [1] = biological target: HIV-1 98IN022 envelope glycoprotein (Env) on pseudovirus (HIV-1)
# [2] = biological target: HIV-1 Env of isolate MGRM-D-013 (clade D) (HIV-1)
# [3] = biological target: HIV-1 MGRM-F1-021 Env (pseudovirus) (HIV-1)
# [4] = biological target: HIV-1 Env of isolate MGRM-D-011 (clade D) (HIV-1)
# [5] = biological target: HIV-1 92RW008 envelope glycoprotein (Env) (HIV-1)
# [6] = biological target: HIV-1 Env of isolate MGRM-AE-002 (HIV-1)
# [7] = biological target: HIV-1 MGRM-C-022 Env (HIV-1)
# [8] = biological target: HIV-1 MGRM-C-024 Env (HIV-1)
# [9] = biological target: HIV-1 Env of isolate MGRM-D-003 (clade D) (HIV-1)
# [10] = biological target: HIV-1 IAVI-C22 envelope protein (Env) on pseudovirus (HIV-1)
# [11] = biological target: HIV-1 Env of isolate MGRM-G-017 (clade G pseudovirus) (HIV-1)
# [12] = biological target: HIV-1 Env of pseudovirus APV_6, clade B (HIV-1)
# [13] = biological target: HIV-1 MGRM-C-020 Env (HIV-1)
# [14] = biological target: HIV-1 JR-CSF envelope protein (Env) on pseudovirus (HIV-1) (UniProt P20871)
# [15] = biological target: HIV-1 Env of isolate MGRM-G-027 (clade G pseudovirus) (HIV-1)
# [16] = biological target: HIV-1 Env of isolate MGRM-D-016 (clade D) (HIV-1)
# [17] = biological target: HIV-1 LAVI_C3 Env (HIV-1)
# [18] = biological target: HIV-1 MGRM-C-001 Env (HIV-1)
# [19] = biological target: HIV-1 92RW024 envelope glycoprotein (Env) on pseudovirus (HIV-1)
# [20] = biological target: HIV-1 Env of pseudovirus APV_17, clade B (HIV-1)
# [21] = biological target: HIV-1 Env of isolate MGRM-G-014 (clade G pseudovirus) (HIV-1)
# [22] = biological target: HIV-1 Env of isolate MGRM-G-013 (clade G pseudovirus) (HIV-1)
# Chain of 1443_C16 (PG16) (TCN-116) (antibody) (VH): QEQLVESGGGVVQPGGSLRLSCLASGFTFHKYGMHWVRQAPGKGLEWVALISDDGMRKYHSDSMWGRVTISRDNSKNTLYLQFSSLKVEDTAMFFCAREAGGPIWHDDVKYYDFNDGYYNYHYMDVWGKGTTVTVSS
# Chain of 1443_C16 (PG16) (TCN-116) (antibody) (VL): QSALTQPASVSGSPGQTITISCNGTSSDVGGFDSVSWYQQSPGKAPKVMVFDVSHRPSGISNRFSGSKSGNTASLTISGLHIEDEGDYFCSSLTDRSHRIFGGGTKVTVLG
Substance,"IC50 (µg/ml), pseudovirus neutralization [1]","IC50 (µg/ml), pseudovirus neutralization [2]","IC50 (µg/ml), pseudovirus neutralization [3]","IC50 (µg/ml), pseudovirus neutralization [4]","IC50 (µg/ml), pseudovirus neutralization [5]","IC50 (µg/ml), pseudovirus neutralization [6]",IC50 [7],IC50 [8],"IC50 (µg/ml), pseudovirus neutralization [9]",neutralization IC50 [10],"IC50 (µg/ml), pseudovirus neutralization [11]","IC50 (µg/ml), pseudovirus neutralization [12]",IC50 [13],neutralization IC50 [14],"IC50 (µg/ml), pseudovirus neutralization [15]","IC50 (µg/ml), pseudovirus neutralization [16]",IC50 [17],IC50 [18],"IC50 (µg/ml), pseudovirus neutralization [19]","IC50 (µg/ml), pseudovirus neutralization [20]",other results
2G12 (antibody),> 50 µg/mL,> 50 µg/mL,14.1 µg/mL,1.5 µg/mL,22.5 µg/mL,> 50 µg/mL,> 50 µg/mL,> 50 µg/mL,> 50 µg/mL,> 50 µg/mL,> 50 µg/mL,1.9 µg/mL,18.6 µg/mL,0.66 µg/mL,> 50 µg/mL,> 50 µg/mL,> 50 µg/mL,2.93 µg/mL,> 50 µg/mL,> 50 µg/mL,"IC50 (µg/ml), pseudovirus neutralization [21]: > 50 µg/mL; IC50 (µg/ml), pseudovirus neutralization [22]: > 50 µg/mL"
1443_C16 (PG16) (TCN-116) (antibody),0.003 µg/mL,0.11 µg/mL,> 50 µg/mL,0.01 µg/mL,0.002 µg/mL,0.01 µg/mL,0.25 µg/mL,0.04 µg/mL,0.01 µg/mL,0.0687 µg/mL,0.02 µg/mL,0.29 µg/mL,> 50 µg/mL,< 0.0025 µg/mL,0.01 µg/mL,0.02 µg/mL,9.55 µg/mL,16.8 µg/mL,0.08 µg/mL,24.8 µg/mL,"IC50 (µg/ml), pseudovirus neutralization [21]: 6.98 µg/mL; IC50 (µg/ml), pseudovirus neutralization [22]: > 50 µg/mL"
4E10 (antibody),0.53 µg/mL,5.38 µg/mL,1.87 µg/mL,0.91 µg/mL,14.5 µg/mL,0.55 µg/mL,5.71 µg/mL,22.6 µg/mL,2.49 µg/mL,1.02 µg/mL,1.14 µg/mL,1.1 µg/mL,2.8 µg/mL,6 µg/mL,1.19 µg/mL,15.4 µg/mL,2.85 µg/mL,5.66 µg/mL,8.88 µg/mL,10.5 µg/mL,"IC50 (µg/ml), pseudovirus neutralization [21]: 13.7 µg/mL; IC50 (µg/ml), pseudovirus neutralization [22]: 1.15 µg/mL"
1495_C14 (PGC14) (antibody),9 µg/mL,> 50 µg/mL,46 µg/mL,> 50 µg/mL,37 µg/mL,> 50 µg/mL,> 50 µg/mL,> 50 µg/mL,> 50 µg/mL,9.5 µg/mL,> 50 µg/mL,23 µg/mL,> 50 µg/mL,> 50 µg/mL,> 50 µg/mL,> 50 µg/mL,12 µg/mL,> 50 µg/mL,> 50 µg/mL,> 50 µg/mL,"IC50 (µg/ml), pseudovirus neutralization [21]: > 50 µg/mL; IC50 (µg/ml), pseudovirus neutralization [22]: > 50 µg/mL"
b12 (antibody),0.42 µg/mL,> 50 µg/mL,> 50 µg/mL,7.75 µg/mL,9.46 µg/mL,17.1 µg/mL,> 50 µg/mL,> 50 µg/mL,> 50 µg/mL,3.6 µg/mL,> 50 µg/mL,> 50 µg/mL,> 50 µg/mL,0.16 µg/mL,> 50 µg/mL,1.12 µg/mL,0.94 µg/mL,> 50 µg/mL,> 50 µg/mL,> 50 µg/mL,"IC50 (µg/ml), pseudovirus neutralization [21]: > 50 µg/mL; IC50 (µg/ml), pseudovirus neutralization [22]: > 50 µg/mL"
2F5 (antibody),> 50 µg/mL,2.12 µg/mL,1.37 µg/mL,> 50 µg/mL,10.4 µg/mL,0.31 µg/mL,> 50 µg/mL,> 50 µg/mL,> 50 µg/mL,> 50 µg/mL,0.6 µg/mL,0.25 µg/mL,> 50 µg/mL,3.36 µg/mL,0.28 µg/mL,9.85 µg/mL,> 50 µg/mL,> 50 µg/mL,8.22 µg/mL,4.61 µg/mL,"IC50 (µg/ml), pseudovirus neutralization [21]: 9.65 µg/mL; IC50 (µg/ml), pseudovirus neutralization [22]: 0.59 µg/mL"
